Here are results for 50 sequences from the supplement of paper PMC9112550, “Optimization of the antimicrobial peptide Bac7 by deep mutational scanning” (BMC Biology, 2022).

The subject of the data set is Escherichia coli TOP10. Kind of data set: shrunken log2 fold change of peptide-encoding DNA abundance (4.5 h post-induction vs induction); higher = less antimicrobial activity (less host growth inhibition). Conditions: time post-induction: 4.5 h; library: site-saturation at positions 5, 18, 19, 20.
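Note: peptides expressed intracellularly from a pBAD plasmid library in pooled LB shake-flask culture, induced with 0.3% L-arabinose, DNA abundance read by NGS, three biological replicates, DESeq2 with apeglm shrinkage.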

As to RRIRNRPPRLPRPRPRPGDMPRP, the “shrunken log2 fold change” value is -0.21.
With RRIRCRPPRLPRPRPRPDFRPRP the figure was 0.00204; with RRIRLRPPRLPRPRPRPIDWPRP, -0.00448; with RRIRMRPPRLPRPRPRPVYPPRP, 0.166.
The figure for RRIRPRPPRLPRPRPRPWAQPRP is -0.00768; for RRIRGRPPRLPRPRPRPIQMPRP it is -0.027; for RRIRCRPPRLPRPRPRPVDSPRP it is 0.176.
The figure for RRIRIRPPRLPRPRPRPDSWPRP is -0.268; for RRIRFRPPRLPRPRPRPVRHPRP it is 0.0636; for RRIRNRPPRLPRPRPRPVHAPRP it is 0.0862.
For the sequence RRIRVRPPRLPRPRPRPNDEPRP, the “shrunken log2 fold change” value is -0.352.
Regarding RRIRSRPPRLPRPRPRPEAAPRP, the “shrunken log2 fold change” value came out at 0.873.
The figure for RRIRSRPPRLPRPRPRPGFTPRP is -0.125; for RRIRERPPRLPRPRPRPQENPRP it is -0.164.
The figure for RRIRLRPPRLPRPRPRPMCAPRP is 0.0321; for RRIRLRPPRLPRPRPRPHYWPRP it is -0.356; for RRIRPRPPRLPRPRPRPKDDPRP it is -0.0737.
The figure for RRIRIRPPRLPRPRPRPVNWPRP is -0.229.
For the sequence RRIRSRPPRLPRPRPRPRTYPRP, the “shrunken log2 fold change” value was -0.452.
For the sequence RRIRCRPPRLPRPRPRPDWGPRP, the “shrunken log2 fold change” value is -0.134.
The figure for RRIRSRPPRLPRPRPRPYGRPRP is -0.151.
The figure for RRIRKRPPRLPRPRPRPNWEPRP is 0.0515; for RRIRNRPPRLPRPRPRPRKAPRP it is 0.473; for RRIRARPPRLPRPRPRPMRMPRP it is 0.784.
The figure for RRIRNRPPRLPRPRPRPRSNPRP is -0.0866.
As to RRIRKRPPRLPRPRPRPARRPRP, the “shrunken log2 fold change” value came to 0.888.
The figure for RRIRSRPPRLPRPRPRPKIEPRP is -0.0199.
The figure for RRIRYRPPRLPRPRPRPEALPRP is -0.23.
The figure for RRIRSRPPRLPRPRPRPTQAPRP is 0.0131; for RRIRRRPPRLPRPRPRPPDLPRP it is 0.66; for RRIRFRPPRLPRPRPRPKSYPRP it is -0.201.
RRIRMRPPRLPRPRPRPCKLPRP: the “shrunken log2 fold change” value was -0.00365.
Take RRIRLRPPRLPRPRPRPRGKPRP: the “shrunken log2 fold change” value amounted to 0.0746.
The figure for RRIRVRPPRLPRPRPRPKFMPRP is -0.0954; for RRIRSRPPRLPRPRPRPWGLPRP it is 0.0137.
Turning to RRIRLRPPRLPRPRPRPNWPPRP, the “shrunken log2 fold change” value is 0.379.
With RRIRKRPPRLPRPRPRPHCQPRP the figure was 0.101; with RRIRLRPPRLPRPRPRPCMMPRP, -0.225; with RRIRQRPPRLPRPRPRPRDSPRP, 0.0142.
With RRIRIRPPRLPRPRPRPEQGPRP the figure was 0.0755; with RRIRFRPPRLPRPRPRPIMKPRP, -0.679.
RRIRPRPPRLPRPRPRPLFWPRP: the “shrunken log2 fold change” value was found to be 0.296.
Regarding RRIRCRPPRLPRPRPRPACRPRP, the “shrunken log2 fold change” value stood at 0.128.
The figure for RRIRSRPPRLPRPRPRPCTEPRP is -0.241.
The figure for RRIRVRPPRLPRPRPRPRHSPRP is 0.292.
Consider RRIRDRPPRLPRPRPRPLNTPRP, for which the “shrunken log2 fold change” value is -0.0995.
The figure for RRIRHRPPRLPRPRPRPDWHPRP is 2.17.
The figure for RRIRKRPPRLPRPRPRPYINPRP is -0.627.
RRIRFRPPRLPRPRPRPRNHPRP: the “shrunken log2 fold change” value is -0.132.
With RRIRQRPPRLPRPRPRPLWEPRP the figure was 0.025.
